Results reported in doi:10.1101/744821 (bioRxiv, 2019).

T1: biotinylated HEG1 cytoplasmic tail (a.a. 1274-1381) (UniProt Q9ULI3 1274-1381, biotin on the in vivo biotinylation peptide tag)
T1 sequence (looked up): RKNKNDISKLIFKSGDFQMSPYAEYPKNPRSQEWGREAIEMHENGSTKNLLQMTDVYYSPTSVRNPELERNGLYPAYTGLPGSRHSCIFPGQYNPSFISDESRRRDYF

B1: His6-EGFP-KRIT1(WT) FERM domain (417-736) (domain or fragment, human, UniProt O00522 417-736, looked up)
chain: KPYEKVRIYRMDGSYRSVELKHGNNTTVQQIMEGMRLSQETQQYFTIWICSENLSLQLKPYHKPLQHVRDWPEILAELTNLDPQRETPQLFLRRDVRLPLEVEKQIEDPLAILILFDEARYNLLKGFYTAPDAKLITLASLLLQIVYGNYESKKHKQGFLNEENLKSIVPVTKLKSKAPHWTNRILHEYKNLSTSEGVSKEMHHLQRMFLQNCWEIPTYGAAFFTGQIFTKASPSNHKVIPVYVGVNIKGLHLLNMETKALLISLKYGCFMWQLGDTDTCFQIHSMENKMSFIVHTKQAGLVVKLLMKLNGQLMPTERNS

How the values were obtained:
[1] = molecular target: T1, biotinylated HEG1 cytoplasmic tail …; experiment: flow cytometry on beads
[2] = molecular target: B1; experiment: flow cytometry on beads

| EC50 [1] | IC50 [2] | Binder |
| --- | --- | --- |
| 32.4 nM | – | B1 |
| – | 410 nM | SRRRDYF (peptide, UniProt Q9ULI3 1375-1381, looked up) [non-biotinylated HEG1 7-mer peptide (residues 1375-1381)] |
